Measured values from paper PMC3522573 (Oncogene, 2012).

How the values were obtained:
Assay in all cases: two-hybrid
Gal4(DBD)-Neh6 = molecular target: T1, Gal4(DBD)-Neh6 (mouse, UniProt Q60795 300-380)
T1 sequence (looked up): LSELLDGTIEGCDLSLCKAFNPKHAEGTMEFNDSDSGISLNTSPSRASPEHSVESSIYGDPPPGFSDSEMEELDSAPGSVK

Gal4(DBD)-Neh6^ΔSDSGIS = molecular target: T2, Gal4(DBD)-Neh6^ΔSDSGIS (mouse, UniProt Q60795 300-380, Δ333-338 (called ΔSDSGIS))
T2 sequence (looked up): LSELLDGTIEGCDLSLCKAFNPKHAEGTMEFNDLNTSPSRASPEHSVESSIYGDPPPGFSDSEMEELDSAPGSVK

Gal4(DBD)-Neh6^ΔDSAPGS = molecular target: T3, Gal4(DBD)-Neh6^ΔDSAPGS (mouse, UniProt Q60795 300-380, Δ373-378 (called ΔDSAPGS))
T3 sequence (looked up): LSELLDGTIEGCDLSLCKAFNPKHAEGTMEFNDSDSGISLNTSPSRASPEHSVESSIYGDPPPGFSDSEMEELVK

B1: Gal4(AD)-WD40 (domain or fragment, mouse, UniProt Q3ULA2 303-581, looked up)
chain: SKGVYCLQYDDQKIVSGLRDNTIKIWDKSTLECKRILTGHTGSVLCLQYDERVIITGSSDSTVRVWDVNAGEMLNTLIHHCEAVLHLRFNNGMMVTCSKDRSIAVWDMASPTDITLRRVLVGHRAAVNVVDFDDKYIVSASGDRTIKVWNTSTCEFVRTLNGHKRGIACLQYRDRLVVSGSSDNTIRLWDIECGACLRVLEGHEELVRCIRFDNKRIVSGAYDGKIKVWDLMAALDPRAPAGTLCLRTLVEHSGRVFRLQFDEFQIVSSSHDDTILIWD
- fold increase in Gal4-driven luciferase activity over either fusion alone (Gal4(DBD)-Neh6): ~3.2 fold
- fold increase in Gal4-driven luciferase activity with GSK-3β^Δ9 co-expressed (Gal4(DBD)-Neh6): 4 fold
- fold increase in Gal4-driven luciferase activity over either fusion alone (Gal4(DBD)-Neh6^ΔSDSGIS): 1.5 fold
- fold increase in Gal4-driven luciferase activity with GSK-3β^Δ9 co-expressed (Gal4(DBD)-Neh6^ΔDSAPGS): 3.1 fold
